Reference: US20230136228A1 (LAMKAP BIO ALPHA, published 2023)
Numbering of substitutions follows the chain as printed. Names and notes keep the numbering of the source.

B1: AB1 L3-1/D (bispecific antibody, human IgG1, kappa, lambda, L234A L235A)
heavy: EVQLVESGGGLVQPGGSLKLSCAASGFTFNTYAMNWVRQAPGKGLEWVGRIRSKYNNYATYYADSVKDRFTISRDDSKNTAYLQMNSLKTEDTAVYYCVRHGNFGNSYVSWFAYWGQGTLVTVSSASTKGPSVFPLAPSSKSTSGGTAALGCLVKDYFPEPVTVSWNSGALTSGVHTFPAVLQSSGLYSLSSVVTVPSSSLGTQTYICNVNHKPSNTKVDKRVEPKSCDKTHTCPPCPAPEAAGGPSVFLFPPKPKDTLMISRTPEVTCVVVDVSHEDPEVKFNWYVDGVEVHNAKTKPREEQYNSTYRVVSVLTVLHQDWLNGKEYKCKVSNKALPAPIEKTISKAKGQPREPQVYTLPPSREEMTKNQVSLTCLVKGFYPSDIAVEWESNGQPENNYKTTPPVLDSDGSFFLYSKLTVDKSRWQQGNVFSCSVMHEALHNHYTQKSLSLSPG
light 1: EIVLTQSPATLSLSPGERATLSCRASQSVNSNLNWYQQKPGQAPRLLIYHGSNRATGIPARFSGSGSGTDFTLTISSLEPEDFAVYYCQQFDLRHEHNTFGQGTKVEIKRTVAAPSVFIFPPSDEQLKSGTASVVCLLNNFYPREAKVQWKVDNALQSGNSQESVTEQDSKDSTYSLSSTLTLSKADYEKHKVYACEVTHQGLSSPVTKSFNRGEC
light 2: QTVVTQEPSLTVSPGGTVTLTCRSSTGAVTTSNYANWFQQKPGQAPRGLIGGTNKRAPGTPARFSGSLLGGKAALTLSGAQPEDEAEYYCALWYKQRWVFGGGTKLTVLGQPKAAPSVTLFPPSSEELQANKATLVCLISDFYPGAVTVAWKADSSPVKAGVETTTPSKQSNNKYAASSYLSLTPEQWKSHRSYSCQVTHEGSTVEKTVAPTECS
notes: KL CEAxCD3 bispecific antibody, hIgG1 L234A+L235A
B2: AB15L3-1/N (bispecific antibody, human IgG1, kappa, lambda, L234A L235A)
heavy: EVQLVESGGGLVQPGGSLKLSCAASGFTFNTYAMNWVRQAPGKGLEWVGRIRSKYNNYATYYADSVKDRFTISRDDSKNTAYLQMNSLKTEDTAVYYCVRHGNFGNSYVSWFAYWGQGTLVTVSSASTKGPSVFPLAPSSKSTSGGTAALGCLVKDYFPEPVTVSWNSGALTSGVHTFPAVLQSSGLYSLSSVVTVPSSSLGTQTYICNVNHKPSNTKVDKRVEPKSCDKTHTCPPCPAPEAAGGPSVFLFPPKPKDTLMISRTPEVTCVVVDVSHEDPEVKFNWYVDGVEVHNAKTKPREEQYNSTYRVVSVLTVLHQDWLNGKEYKCKVSNKALAAPIEKTISKAKGQPREPQVYTLPPSREEMTKNQVSLTCLVKGFYPSDIAVEWESNGQPENNYKTTPPVLDSDGSFFLYSKLTVDKSRWQQGNVFSCSVMHEALHNHYTQKSLSLSPG
light 1: B1 light 1 with S28T, S31N, A43S, H50Y, G51A, D92N, L93Y, R94H
light 2: B1 light 2
notes: Kappa-lambda body, lead optimization wave 1
B3: AB60L3-1/N (bispecific antibody, human IgG1, kappa, lambda, L234A L235A)
heavy: B2 heavy
light 1: B1 light 1 with S28T, S31A, H50Y, G51A, L93Y, R94H, H95N
light 2: B1 light 2
notes: Kappa-lambda body, lead optimization wave 2
B4: AB13L3-1/N (bispecific antibody, human IgG1, kappa, lambda, L234A L235A)
heavy: B2 heavy
light 1: B1 light 1 with L93Y, R94F, H95M, E96N, H97K
light 2: B1 light 2
notes: as for B2
B5: AB20L3-1/N (bispecific antibody, human IgG1, kappa, lambda, L234A L235A)
heavy: B2 heavy
light 1: B1 light 1 with L93Y, R94F, H95R, H97L
light 2: B1 light 2
notes: as for B2
B6: AB14L3-1/N (bispecific antibody, human IgG1, kappa, lambda, L234A L235A)
heavy: B2 heavy
light 1: B1 light 1 with L93Y, R94F, H95R, H97S
light 2: B1 light 2
notes: as for B2
B7: AB66L3-1/N (bispecific antibody, human IgG1, kappa, lambda, L234A L235A)
heavy: B2 heavy
light 1: B1 light 1 with R24H, A25S, S28V, S31K, L93Y, R94F, H95R
light 2: B1 light 2
notes: as for B3
B8: AB54L3-1/N (bispecific antibody, human IgG1, kappa, lambda, L234A L235A)
heavy: B2 heavy
light 1: B1 light 1 with S28E, N30H, S31K, G51S, D92N, L93Y, R94H
light 2: B1 light 2
notes: as for B3
B9: anti-CEA antibody C11 (antibody, human IgG1, kappa, V domains shown)
VH: EVQLVESGGGLVQPGGSLKLSCAASGFTFNTYAMNWVRQAPGKGLEWVGRIRSKYNNYATYYADSVKDRFTISRDDSKNTAYLQMNSLKTEDTAVYYCVRHGNFGNSYVSWFAYWGQGTLVTVSS
VL: DIQMTQSPSTLSASVGDRVTITCRASQLISNGLYWYQQKPGKAPKLLIYDASILESGVPSRFSGSGSGTEFTLTISSLQPDDFATYYCQQRLSWPLTFGQGTKVEIKR
notes: Bivalent monoclonal antibody; also called C11 mAb

Assays:
human CD3ε [1] = biological target: T1, human CD3ε (human, UniProt P07766 23-207); experiment: flow cytometry, Jurkat cells
T1 construct: whole, on cells; Present on cells as part of the CD3/TCR complex; also called CD3 epsilon
T1 sequence (P07766 23-207): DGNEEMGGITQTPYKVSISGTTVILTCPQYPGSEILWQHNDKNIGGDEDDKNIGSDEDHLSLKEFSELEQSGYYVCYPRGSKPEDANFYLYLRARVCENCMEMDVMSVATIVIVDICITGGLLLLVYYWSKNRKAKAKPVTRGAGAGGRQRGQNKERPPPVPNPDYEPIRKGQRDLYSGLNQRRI

[2] = biological target: T2, human CEACAM5 (carcinoembryonic antigen, CEA), cell surface (human, UniProt P06731 35-685); experiment: flow cytometry, MKN-45 and/or HPAF-II cells
T2 construct: whole, on cells; also called CD66e
T2 sequence (looked up): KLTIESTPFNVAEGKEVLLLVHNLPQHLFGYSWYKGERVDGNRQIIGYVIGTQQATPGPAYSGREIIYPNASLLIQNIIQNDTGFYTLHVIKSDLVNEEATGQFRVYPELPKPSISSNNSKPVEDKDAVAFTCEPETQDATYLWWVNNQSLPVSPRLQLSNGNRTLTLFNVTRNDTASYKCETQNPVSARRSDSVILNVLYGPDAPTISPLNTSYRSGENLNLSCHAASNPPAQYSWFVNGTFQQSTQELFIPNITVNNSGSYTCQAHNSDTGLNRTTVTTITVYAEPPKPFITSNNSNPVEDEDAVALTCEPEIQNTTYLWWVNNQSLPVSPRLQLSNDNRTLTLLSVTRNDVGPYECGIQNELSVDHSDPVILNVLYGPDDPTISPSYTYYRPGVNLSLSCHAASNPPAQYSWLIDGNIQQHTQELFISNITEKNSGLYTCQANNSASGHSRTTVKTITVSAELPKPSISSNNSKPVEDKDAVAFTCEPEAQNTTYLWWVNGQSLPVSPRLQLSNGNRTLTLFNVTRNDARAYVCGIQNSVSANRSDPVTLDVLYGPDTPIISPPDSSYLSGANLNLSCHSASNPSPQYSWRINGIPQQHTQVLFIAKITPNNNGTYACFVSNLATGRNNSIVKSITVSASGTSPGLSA

human CD3ε [3] = biological target: T1, human CD3ε; experiment: flow cytometry, HUT-78 cells
[4] = biological target: T2, human CEACAM5 (carcinoembryonic …); experiment: flow cytometry, CEA positive cells
[5] = biological target: T2, human CEACAM5 (carcinoembryonic …); experiment: cell-based or functional assay
human CD3ε [6] = biological target: T1, human CD3ε; experiment: flow cytometry, primary CD4+ and CD8+ T-cells
[7] = biological target: T2, human CEACAM5 (carcinoembryonic …); experiment: flow cytometry, MKN-45 cells
Description: Examples of cells that can be used include CEACAM5-positive cell lines such as the gastric adenocarcinoma cell line MKN45 (expressing 155′000 CEACAM5 molecules per cell), or the pancreatic adenocarcinoma cell line HPAF-II (expressing 108′000 CEACAM5 molecules per cell) or the colorectal adenocarcinoma cell line LS174T (expressing 26′000 CEACAM5 molecules per cell) and CEACAM5-negative cell lines, such as the lung carcinoma cell line A549 and the MKN45 CEACAM5-knock out cell line generated by CRISPR-CAS9 methodology. Cell staining and binding assessment can be performed as described above. Binding of the bsAb of the invention at 200 nM, 1000 nM and 5000 nM is 40% and higher compared to binding of TCB2014 (see Table 4 and also FIGS. 11 and 14).

[8] = biological target: T3, shed soluble CEACAM5 (sCEA) (human, UniProt P06731 35-685, limits assumed); experiment: cell-based or functional assay
T3 sequence (looked up): T2 sequence (looked up)

[9] = biological target: T4, biotinylated recombinant human CEACAM5 protein (human, UniProt P06731 35-685, biotinylated in vitro with biotin ligase (Avitag)); experiment: competition ELISA with reference antibodies
T4 construct: extracellular domain; also called recombinant CEA; CEA ECD; not shown: C-terminal Avitag and either a hexa-histidine tag, a human Fc region or a mouse Fc region; which one was used in the ELI
T4 sequence (looked up): T2 sequence (looked up)

Row | Binder | binding higher than TCB2014 (at 100 nM) [2] [%] | binding result (human CD3ε [3]) | binding higher than TCB2014 (at 200 nM) [4] [%] | Killing EC50, HPAFII cells (TDCC, LDH release) [5] [nM] | Killing EC50, LS174T cells (TDCC, LDH release) [5] [nM] | Killing EC50, MKN45 cells (TDCC, LDH release) [5] [nM] | binding result (human CD3ε [6]) | EC50 [7] [nM] | Top MFI value [7] [MFI] | binding higher than TCB2014 (at 200 nM, 1000 nM and 5000 nM) [7] [%] | EC50 fold change compared to no shed CEA condition, sCEA 0 µg/mL (reference) [8] [fold] | EC50 fold change compared to no shed CEA condition, sCEA 0.2 µg/mL [8] [fold] | EC50 fold change compared to no shed CEA condition, sCEA 1 µg/mL [8] [fold] | EC50 fold change compared to no shed CEA condition, sCEA 5 µg/mL [8] [fold] | also measured
1 | B1 | – | – | – | – | – | – | – | – | – | – | – | – | – | – | binding result (human CD3ε [1]): binds
2 | B2 | ≥ 40 | binds | – | – | – | – | – | – | – | – | – | – | – | – | –
3 | B3 | – | – | ≥ 40 | 0.28 | 0.21 | 0.13 | binds | 64.1 | 989000 | ≥ 40 | 1 | 0.9 | 0.8 | 1.3 | –
4 | B4 | ≥ 40 | binds | – | – | – | – | – | – | – | – | – | – | – | – | –
5 | B5 | ≥ 40 | binds | – | – | – | – | – | – | – | – | – | – | – | – | –
6 | B6 | ≥ 40 | binds | – | – | – | – | – | – | – | – | – | – | – | – | –
7 | B7 | – | – | ≥ 40 | 0.2 | 0.22 | 0.05 | binds | 24.3 | 759000 | ≥ 40 | 1 | 1.2 | 2.1 | 3.1 | –
8 | B8 | – | – | ≥ 40 | 0.1 | 0.13 | 0.11 | binds | 66.4 | 760000 | ≥ 40 | 1 | 0.9 | 4.6 | 5.7 | –
9 | B9 | – | – | – | – | – | – | – | – | – | – | – | – | – | – | binding result [9]: binds
